From article PMC12822413, “TSHR‐Targeting Nucleic Acid Aptamer Treats Graves' Ophthalmopathy via Novel Allosteric Inhibition” (Advanced Science, 2025)

Molecular target: T1, thyrotropin receptor (TSHR), wild type, on HEK293T cells stably expressing it (TSHR-293T) (human, UniProt P16473-1)
T1 construct: human thyrotropin receptor, cDNA from GeneCopoeia (NM_000369.4) cloned into pLVX-Puro; also called TSHR-293T cells; source: HEK293T, lentiviral transduction (pLVX-Puro), puromycin selected, on cells
Test: flow cytometry on cells; competitive binding assay of M22 and the DNA aptamer YC3 on TSHR-293T cells; each in excess against the other
Conditions: one partner purified

binding result: binds
B1: Human monoclonal autoantibody to the TSHR (M22) (antibody, V domains shown)
VH: QVQLVQSGAEVKKPGESLKISCRGSGYRFTSYWINWVRQLPGKGLEWMGRIDPTDSYTNYSPSFKGHVTVSADKSINTAYLQWSSLKASDTGMYYCARLEPGYSSTWSVNWGQGTLVTVS
VL: LTVLTQPPSVSGAPRQRVTISCSGNSSNIGNNAVNWYQQLPGKAPKLLIYYDDQLPSGVSDRFSGSRSGTSASLAIRGLQSEDEADYYCTSWDDSLDSQLFGGGTRLTVL
notes: also called human TSAb; source: bought: RSR (Cardiff, UK)
